Assay results reported in the Human Domainome abundance scans (Beltran et al. 2025).

B1: Nucleosome-remodeling factor subunit BPTF, residues 2862 to 2918; numbered along this chain, Q12830 (parent)
chain: TKKDTKLYCICKTPYDESKFYIGCDRCQNWYHGRCVGILQSEAELIDEYVCPQCQST

Variants of: B1
Test: abundance fitness (aPCA) (normalised: wild type 0, dead -1); higher = more abundant; growth selection in yeast, the domain comes from the species named
Conditions: Homo sapiens

Abundance fitness: each site, then its substitutions
K19: W -0.668; G -0.244; C -0.252; I -0.101; T -0.231; L -0.059; P -0.637; M -0.08; N 0.082; F -0.351; H 0.007; A -0.069; E 0.106; R 0.048; D 0.044; S -0.186; Y -0.286; V -0.108; Q -0.097
F20: T -0.009; D -0.062; G -0.226; M -0.149; Y -0.08; C -0.346; A -0.161; I -0.244; W -0.083; E -0.002; K -0.192; N -0.044; S -0.11; P -0.001; R -0.149; Q -0.104; L -0.193
R26: N 0.075; Y -0.11; V -0.18; D -0.029; W -0.278; H 0.064; E -0.087; F -0.279; M -0.193; P -0.207; K -0.17; S 0.008; Q -0.203; T 0.067; I 0.043; G 0.041; L -0.068
C11: E -0.638; N -0.857; F -1.12; H -1.01; I -0.968; L -0.828; S -0.934; D -0.759; K -0.822; P -0.802; R -0.818; Y -0.997; W -1.09; G -0.771; Q -0.947; A -0.934; V -1.03; M -0.803
Y21: T -0.3; G -0.395; L -0.245; H -0.188; C -0.369; R -0.151; M 0.118; A 0.006; W -0.08; K -0.196; F -0.161; I -0.237; V -0.19; E -0.245; P -0.658; Q -0.359; N -0.134
E17: M -0.131; Q -0.074; S -0.065; I -0.155; C -0.288; W -0.412; H -0.168; G 0.055; N -0.172; T -0.2; V -0.289; K -0.013; R -0.304; F -0.052; P -0.153; D -0.013; A -0.042; Y -0.294; L -0.172
T13: L -0.292; P -0.674; A -0.357; C -0.577; M -0.176; I -0.482; G -0.567; R -0.22; S -0.116; Q -0.116; D -0.54; K -0.044; H -0.518; N -0.297
W30: I -0.033; A 0.09; C -0.123; H 0.004; G -0.116; D -0.097; F 0.115
Q28: I -0.342; P -0.193; S 0.048; D -0.079; G -0.028; T -0.081; H 0.009; E -0.072; C 0.126; M -0.096; W -0.236; K 0.084; N -0.133; R -0.081; A -0.14; F -0.221
C24: I -0.871; P -0.539; Y -0.894; D -0.765; A -1.02; L -0.884; W -0.974; V -0.908; E -0.641; F -0.735; T -0.933; R -0.584; N -0.966; S -0.976; H -0.972; G -0.909; M -1.05
D25: T 0.056; G -0.041; R 0.025; F -0.168; A -0.011; W -0.176; N 0; P -0.204; S 0.054; I -0.15; Q 0.099; L -0.021; H -0.061; K 0.154; E 0.058
G23: V -0.223; C -0.007; S -0.085; A -0.099; F -0.139; D -0.085; N -0.133; K -0.13; H 0.029; Q -0.079; T -0.021; R -0.126; Y -0.031; P -0.297; W -0.177; I -0.546; M -0.016
I22: N -0.803; A -0.578; S -0.786; G -0.649; M -0.237; V -0.038; T -0.398; R -0.475; F -0.609; Y -0.617; C -0.806; Q -0.641; H -0.678; W -0.533; L 0.015; E -0.953; P -0.87; K -0.551; D -0.819
C27: W -0.907; M -0.816; A -1.05; N -0.674; T -0.871; L -1.04; D -0.962; K -0.822; F -0.843; G -0.758; Q -0.956; V -0.803; Y -0.844; H -1.11; P -1.08; E -0.785; S -0.811; R -0.915; I -1.15
P14: N -0.191; Y -0.131; Q -0.263; H -0.275; W -0.447; A 0.008; M -0.096; C -0.367; S -0.161; L -0.212; I -0.216; E -0.163; K -0.096; T -0.206; V -0.229; G -0.42; D -0.581
N29: R -0.061; F -0.307; Q 0.089; C -0.353; M -0.1; K -0.124; G -0.068; H -0.062; A 0.06; V -0.064; T -0.191; I -0.431; L -0.198; Y -0.376; S -0.047; E -0.328
K12: C -0.104; I -0.869; Q 0.006; R -0.07; L -0.121; T -0.106; D -0.2; M -0.167; V -0.808; Y -0.134; W -0.56; H -0.061; S -0.119; F -0.253; E -0.025; P -0.907; N -0.233
Y15: T -0.303; F -0.02; D -0.438; A -0.366; H -0.106; Q -0.665; S -0.539; V -0.275; W -0.118; K -0.131; E -0.489; M -0.005; I -0.073; N -0.593; C -0.505; P -0.313; G -0.492
S18: C -0.366; D -0.031; P -0.759; N -0.185; Q -0.5; R -0.24; F -0.582; A -0.217; L -0.536; H -0.098; W -0.746; I -1.05; Y -0.37; M -0.284; K -0.277; G -0.087; V -0.72; T -0.198
I10: Y -0.234
D16: T -0.366; P -0.622; W -0.778; V -0.315; K -0.452; L -0.555; N -0.181; A -0.441; Y -0.757; R -0.515; S -0.362; H -0.55; G -0.564; C -0.449; Q -0.182; I -0.624; M -0.194
